Measurements taken from patent US20180135012A1.

Target: T1, A2 domain of von Willebrand Factor (vWF-A2, recombinant), P04275
T1 chain: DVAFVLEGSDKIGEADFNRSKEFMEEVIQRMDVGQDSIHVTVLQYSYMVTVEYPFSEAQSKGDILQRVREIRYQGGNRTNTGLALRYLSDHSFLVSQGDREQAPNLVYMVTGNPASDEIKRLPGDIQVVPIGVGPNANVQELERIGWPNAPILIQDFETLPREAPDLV

B1: recombinant ADAMTS13 (protein)
chain: AAGGILHLELLVAVGPDVFQAHQEDTERYVLTNLNIGAELLRDPSLGAQFRVHLVKMVILTEPEGAPNITANLTSSLLSVCGWSQTINPEDDTDPGHADLVLYITRFDLELPDGNRQVRGVTQLGGACSPTWSCLITEDTGFDLGVTIAHEIGHSFGLEHDGAPGSGCGPSGHVMASDGAAPRAGLAWSPCSRRQLLSLLSAGRARCVWDPPRPQPGSAGHPPDAQPGLYYSANEQCRVAFGPKAVACTFAREHLDMCQALSCHTDPLDQSSCSRLLVPLLDGTECGVEKWCSKGRCRSLVELTPIAAVHGRWSSWGPRSPCSRSCGGGVVTRRRQCNNPRPAFGGRACVGADLQAEMCNTQACEKTQLEFMSQQCARTDGQPLRSSPGGASFYHWGAAVPHSQGDALCRHMCRAIGESFIMKRGDSFLDGTRCMPSGPREDGTLSLCVSGSCRTFGCDGRMDSQQVWDRCQVCGGDNSTCSPRKGSFTAGRAREYVTFLTVTPNLTSVYIANHRPLFTHLAVRIGGRYVVAGKMSISPNTTYPSLLEDGRVEYRVALTEDRLPRLEEIRIWGPLQEDADIQVYRRYGEEYGNLTRPDITFTYFQPKPRQAWVWAAVRGPCSVSCGAGLRWVNYSCLDQARKELVETVQCQGSQQPPAWPEACVLEPCPPYWAVGDFGPCSASCGGGLRERPVRCVEAQGSLLKTLPPARCRAGAQQPAVALETCNPQPCPARWEVSEPSSCTSAGGAGLALENETCVPGADGLEAPVTEGPGSVDEKLPAPEPCVGMSCPPGWGHLDATSAGEKAPSPWGSIRTGAQAAHVWTPAAGSCSVSCGRGLMELRFLCMDSALRVPVQEELCGLASKPGSRREVCQAVPCPARWQYKLAACSVSCGRGVVRRILYCARAHGEDDGEEILLDTQCQGLPRPEPQEACSLEPCPPRWKVMSLGPCSASCGLGTARRSVACVQLDQGQDVEVDEAACAALVRPEASVPCLIADCTYRWHVGTWMECSVSCGDGIQRRRDTCLGPQAQAPVPADFCQHLPKPVTVRGCWAGPCVGQGTPSLVPHEEAAAPGRTTATPAGASLEWSQARGLLFSPAPQPRRLLPGPQENSVQSSACGRQHLEPTGTIDMRGPGQADCAVAIGRPLGEVVTLRVLESSLNCSAGDMLLLWGRLTWRKMCRKLLDMTFSSKTNTLVVRQRCGRPGGGVLLRYGSQLAPETFYRECDMQLFGPWGEIVSPSLSPATSNAGGCRLFINVAPHARIAIHALATNMGAGTEGANASYILIRDTHSLRTTAFHGQQVLYWESESSQAEMEFSEGFLKAQASLRGQYWTLQSWVPEMQDPQSWKGKEGT
enzymatic cleavage of vWF subdomain A2 detected by Western blot: the cell-expressed ADAMTS13 (lane 4) appears more active than the recombinant ADAMTS13 (lane 2), despite the fact that there is 6× less cell-expressed ADAMTS13 (13ng) than recombinant ADAMTS13 (75 ng) in the assay

B2: ADAMTS13 fused to the extracellular domain of GPA, expressed on K562 erythroleukemia cells (protein)
chain: AAGGILHLELLVAVGPDVFQAHQEDTERYVLTNLNIGAELLRDPSLGAQFRVHLVKMVILTEPEGAPNITANLTSSLLSVCGWSQTINPEDDTDPGHADLVLYITRFDLELPDGNRQVRGVTQLGGACSPTWSCLITEDTGFDLGVTIAHEIGHSFGLEHDGAPGSGCGPSGHVMASDGAAPRAGLAWSPCSRRQLLSLLSAGRARCVWDPPRPQPGSAGHPPDAQPGLYYSANEQCRVAFGPKAVACTFAREHLDMCQALSCHTDPLDQSSCSRLLVPLLDGTECGVEKWCSKGRCRSLVELTPIAAVHGRWSSWGPRSPCSRSCGGGVVTRRRQCNNPRPAFGGRACVGADLQAEMCNTQACEKTQLEFMSQQCARTDGQPLRSSPGGASFYHWGAAVPHSQGDALCRHMCRAIGESFIMKRGDSFLDGTRCMPSGPREDGTLSLCVSGSCRTFGCDGRMDSQQVWDRCQVCGGDNSTCSPRKGSFTAGRAREYVTFLTVTPNLTSVYIANHRPLFTHLAVRIGGRYVVAGKMSISPNTTYPSLLEDGRVEYRVALTEDRLPRLEEIRIWGPLQEDADIQVYRRYGEEYGNLTRPDITFTYFQPKPRQAWVWAAVRGPCSVSCGAGLRWVNYSCLDQARKELVETVQCQGSQQPPAWPEACVLEPCPPYWAVGDFGPCSASCGGGLRERPVRCVEAQGSLLKTLPPARCRAGAQQPAVALETCNPQPCPARWEVSEPSSCTSAGGAGLALENETCVPGADGLEAPVTEGPGSVDEKLPAPEPCVGMSCPPGWGHLDATSAGEKAPSPWGSIRTGAQAAHVWTPAAGSCSVSCGRGLMELRFLCMDSALRVPVQEELCGLASKPGSRREVCQAVPCPARWQYKLAACSVSCGRGVVRRILYCARAHGEDDGEEILLDTQCQGLPRPEPQEACSLEPCPPRWKVMSLGPCSASCGLGTARRSVACVQLDQGQDVEVDEAACAALVRPEASVPCLIADCTYRWHVGTWMECSVSCGDGIQRRRDTCLGPQAQAPVPADFCQHLPKPVTVRGCWAGPCVGQGTPSLVPHEEAAAPGRTTATPAGASLEWSQARGLLFSPAPQPRRLLPGPQENSVQSSACGRQHLEPTGTIDMRGPGQADCAVAIGRPLGEVVTLRVLESSLNCSAGDMLLLWGRLTWRKMCRKLLDMTFSSKTNTLVVRQRCGRPGGGVLLRYGSQLAPETFYRECDMQLFGPWGEIVSPSLSPATSNAGGCRLFINVAPHARIAIHALATNMGAGTEGANASYILIRDTHSLRTTAFHGQQVLYWESESSQAEMEFSEGFLKAQASLRGQYWTLQSWVPEMQDPQSWKGKEGTYPYDVPDYALSTTEVAMHTSTSSSVTKSYISSQTNDTHKRDTYAATPRAHEVSEISVRTVYPPEEETGERVQLAHHFSEPEITLIIFGVMAGVIGTILLISYGIRRLIKKSPSDVKPLPSPDTDVPLSSVEIENPETSDQ
enzymatic cleavage of vWF subdomain A2 detected by Western blot: the cell-expressed ADAMTS13 (lane 4) appears more active than the recombinant ADAMTS13 (lane 2), despite the fact that there is 6× less cell-expressed ADAMTS13 (13ng) than recombinant ADAMTS13 (75 ng) in the assay
